A short description of data set [1]: SEC-MALLS molar mass of PNPase and PNPase/RNase E complexes. The class given is physicochemical. The method, then: Estimation of molar masses of PNPase and the various PNPase/RNase E complexes was carried out by size-exclusion chromatography with multi-angle laser light scattering (SEC-MALLS). Proteins (100 μl at ∼1 mg/ml concentration) were loaded onto a Superdex 200 10/300 Increase GL SEC column (GE Healthcare) at 0.5 ml/min using an AKTA Purifier FPLC system ([…]). Chromatograms were acquired using UNICORN software (GE Healthcare) at 280 nm. The eluent from the S200 column was analysed with an online DAWN HELEOS II MALLS instrument with eight detectors (Wyatt Technology), followed by an Optilab T-rEX differential refractometer (Wyatt Technology) at 25°C. Data collection and analysis were performed using ASTRA 6 software (Wyatt Technology). Eluted peaks from SEC column were evaluated by Zimm Plot, using a dn/dc value of 0.1850 ml/g. Bovine serum albumin was used as a standard to confirm the system performance (Supplementary Table S1).

Data set [2] concerns the target T1, PNPase (Escherichia coli, UniProt P05055).
T1 construct: made in house; host or cells: E. coli Evo21(DE3)
T1 sequence (P05055 whole entry, looked up): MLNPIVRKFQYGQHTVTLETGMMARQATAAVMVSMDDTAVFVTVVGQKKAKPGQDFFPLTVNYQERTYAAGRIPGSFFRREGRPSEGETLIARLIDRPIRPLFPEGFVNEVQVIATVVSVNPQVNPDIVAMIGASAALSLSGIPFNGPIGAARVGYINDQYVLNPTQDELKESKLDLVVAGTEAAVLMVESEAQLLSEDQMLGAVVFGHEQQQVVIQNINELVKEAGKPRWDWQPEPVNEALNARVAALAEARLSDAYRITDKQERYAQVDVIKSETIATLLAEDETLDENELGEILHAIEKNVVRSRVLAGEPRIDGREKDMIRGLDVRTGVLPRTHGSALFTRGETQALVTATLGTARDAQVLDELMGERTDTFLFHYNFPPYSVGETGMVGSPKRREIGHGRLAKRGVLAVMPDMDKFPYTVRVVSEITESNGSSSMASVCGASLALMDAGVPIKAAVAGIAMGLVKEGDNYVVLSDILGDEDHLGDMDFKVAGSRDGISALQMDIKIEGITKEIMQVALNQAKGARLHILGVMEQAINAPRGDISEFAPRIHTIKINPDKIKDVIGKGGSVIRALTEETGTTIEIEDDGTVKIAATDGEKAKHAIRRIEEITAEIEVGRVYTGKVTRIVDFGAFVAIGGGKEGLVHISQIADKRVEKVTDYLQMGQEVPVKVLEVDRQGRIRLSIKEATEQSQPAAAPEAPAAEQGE
It counts as binding, E. coli. Particulars: SPR; for Kd (dissociation rate constant, point mutants and wildtype): 25°C, immobilized PNPase C-His, HEPES pH 7.2, 0, 12.5, 25 and 50 nM (point mutants), contact 120 s, dissociation 120 s, duplicates. The source says:
Briefly, at the N-terminal of the construct, there is an Hisx6 affinity tag that will be used for affinity purification. Following the Hisx6 tag there is an maltose-binding protein (MBP) tag with a TEV cleavage site to maintain solubility of the peptides. Following the MBP tag the gene encoding the peptide is inserted, and is then followed by intein, a self-cleavable tag, followed by a choline-binding domain, which can be used for an extra step of affinity purification. […] After expression, cells were harvested, resuspended in Lysis Buffer 2 (20 mM Tris–HCl, pH 8.0, 80 mM KCl, 300 mM NaCl, 20 mM Imidazole, 0.5 mM TCEP), and lysed with a cell disruptor (Emulsiflex, Avestin). […] After subsequent rounds of washing with Ni Equilibration Buffer supplemented with, respectively, 0.1% Triton-X, 1 M NaCl, and a final wash in Ni Equilibration Buffer, samples were eluted with Ni Elution Buffer (20 mM Tris–HCl, pH 8.0, 300 mM NaCl, 300 mM imidazole, 0.5 mM TCEP). Enriched fractions were then supplemented with 100 mM β-mercaptoethanol to catalyse intein self-cleavage overnight at room temperature. Treated samples were filtered and loaded on an amylose gravity flow column, equilibrated with Amy Equilibration Buffer (20 mM Tris–HCl, pH 8.0, 20 mM NaCl, 20 mM imidazole, 2 mM β-mercaptoethanol) and after washing, His-tagged TEV protease was applied to the resin and incubated at 4°C for 2 h.
PNPase carrying a C-terminal Hisx6 tag was expressed from pExp-cis-Ec_PNP-CHis vector in E. coli Evo21(DE3) cells, induced with 0.4 mM IPTG, at 18°C overnight. After expression, cells were harvested and resuspended in Lysis Buffer 2 (20 mM Tris–HCl, pH 8.0, 80 mM KCl, 300 mM NaCl, 20 mM imidazole, 0.5 mM TCEP), and lysed with a cell disruptor (Emulsiflex, Avestin). […] After subsequent rounds of washing with equilibration buffer supplemented with 0.1% Triton-X, or 1 M NaCl, the sample was eluted with Ni PNPCHis Elution Buffer (20 mM NaH2PO4, pH 8.0, 300 mM NaCl, 300 mM KCl, 5 mM MgCl2, 300 mM imidazole, pH 7.5, 10 mM β-mercaptoethanol). […] Fractions containing PNPase were run through a HiPrep™ 26/10 Desalting Column (GE Healthcare) and buffer exchanged to Q PNPCHis A (20 mM NaH2PO4, pH 8.0, 30 mM NaCl, 10% glycerol, 0.5 mM TCEP).
Interaction measurements were made using a Biacore T200 instrument (GE) at 25°C. PNPase with a 6xHisTag at the CTD was immobilized on a Series S Sensor Chip NTA (Cytiva) to provide a signal of 5 response units (RU). […] For the SPR analysis of the point mutants, binding to PNPase was measured at four different concentrations (0, 12.5, 25, and 50 nM). All concentrations were run in duplicates. The contact time was 60 s, while the dissociation time was 120 s, at a […] flow rate. […] The chip surface was regenerated with 350 mM EDTA in water, following manufacturer's instructions. Data were processed using the manufacturer’s BIAevaluation software.

Setting [3] is: Superdex 200, 25°C, buffer A (with 0.01% w/v b-DDM).
Where [4] appears, read: Superdex 200, 25°C, buffer A: 50 mM Tris pH 7.5, 100 mM NaCl, 100 mM KCl, 0.01% w/v b-DDM, 1 mM TCEP.
Where [5] appears, read: buffer A (with 0.01% w/v b-DDM).
[6] abbreviates: buffer A, expected: PNPase trimer, or trimer:RNase E 1:1 ratio.
[7] abbreviates: Superdex 200, 25°C, buffer B: A w/o bDDM.
[8] abbreviates: buffer B, expected: trimer:RNase E 1:1 ratio for complexes.
[9] abbreviates: buffer B: A w/o bDDM, second line in buffer B.
[10] abbreviates: mutant vs wildtype RNase E 960–1061.

Results on six molecules are retold here after paper PMC12489471, “A multi-dentate, cooperative interaction between endo- and exo-ribonucleases within the bacterial RNA degradosome” (Nucleic Acids Research, 2025).

Entries after “also recorded” stand apart in the source; their conditions may differ.

“E. coli PNPase: polynucleotide phosphorylase, trimer”: in data set [1] (setting [3]), the “Mw weight-averaged solute molar mass” value is given as 204,900 Da. The “Mn number-averaged solute molar mass” value in data set [1] (setting [4]) is recorded as 204,600 Da. For the same molecule, the “Polydispersity (Mn/Mw)” value in data set [1] (setting [5]) is listed as 1.001. Besides, in data set [1] (setting [6]), the “Difference Mn from expected mass” value was determined as 11.5%.
Take “Bovine serum albumin: standard to confirm the system performance [reference compound]”: the entries for the “Mw weight-averaged solute molar mass” value in data set [1] (setting [3]), in data set [1] (setting [7]) and in data set [1] (setting [9]) were 63,270 Da, 63,350 Da and 64,200 Da, respectively. The “Mn number-averaged solute molar mass” value in data set [1] (setting [4]) is 63,250 Da; in data set [1] (setting [7]), 63,300 Da; in data set [1] (setting [9]), 63,900 Da. Also, the results for the “Polydispersity (Mn/Mw)” value in data set [1] (setting [5]), in data set [1] (buffer B: A w/o bDDM) and in data set [1] (setting [9]) were 1.000, 1.001 and 1.005, respectively. The “Difference Mn from expected mass” value is recorded as 4.8% in data set [1] (setting [6]); 4.7% in data set [1] (setting [8]); 3.8% in data set [1] (buffer B, second line in buffer B).

B1: RNase E 583-1061, avi-tagged: avi-tagged RNase E 583-1061 (protein)
chain: SGGEETKPTEQPAPKAEAKPERQQDRRKPRQNNRRDRNERRDTRSERTEGSDNREENRRNRRQAQQQTAETRESRQQAEVTEKARTADEQQAPRRERSRRRNDDKRQAQQEAKALNVEEQSVQETEQEERVRPVQPRRKQRQLNQKVRYEQSVAEEAVVAPVVEETVAAEPIVQEAPAPRTELVKVPLPVVAQTAPEQQEENNADNRDNGGMPRRSRRSPRHLRVSGQRRRRYRDERYPTQSPMPLTVACASPELASGKVWIRYPIVRPQDVQVEEQREQEEVHVQPMVTEVPVAAAIEPVVSAPVVEEVAGVVEAPVQVAEPQPEVVETTHPEVIAAAVTEQPQVITESDVAVAQEVAEQAEPVVEPQEETADIEEVVETAEVVVAEPEVVAQPAAPVVAEVAAEVETVAAVEPEVTVEHNHATAPMTRAPAPEYVPEAPRHSDWQRPTFAFEGKGAAGGHTATHHASAAPARPQPVE
modifications: left off: Avi tag, end not stated, kept
With B1, in data set [1] (setting [7]), the “Mn number-averaged solute molar mass” value is 52,930 Da and the “Mw weight-averaged solute molar mass” value is reported as 53,310 Da. The “Difference Mn from expected mass” value in data set [1] (setting [8]) is given as 4.7%. In data set [1] (buffer B: A w/o bDDM), the “Polydispersity (Mn/Mw)” value was found to be 1.007.

B2: E. coli PNPase core, lacking S1 and KH domains: truncated PNPase lacking the KH and S1 domains (protein)
chain: MLNPIVRKFQYGQHTVTLETGMMARQATAAVMVSMDDTAVFVTVVGQKKAKPGQDFFPLTVNYQERTYAAGRIPGSFFRREGRPSEGETLIARLIDRPIRPLFPEGFVNEVQVIATVVSVNPQVNPDIVAMIGASAALSLSGIPFNGPIGAARVGYINDQYVLNPTQDELKESKLDLVVAGTEAAVLMVESEAQLLSEDQMLGAVVFGHEQQQVVIQNINELVKEAGKPRWDWQPEPVNEALNARVAALAEARLSDAYRITDKQERYAQVDVIKSETIATLLAEDETLDENELGEILHAIEKNVVRSRVLAGEPRIDGREKDMIRGLDVRTGVLPRTHGSALFTRGETQALVTATLGTARDAQVLDELMGERTDTFLFHYNFPPYSVGETGMVGSPKRREIGHGRLAKRGVLAVMPDMDKFPYTVRVVSEITESNGSSSMASVCGASLALMDAGVPIKAAVAGIAMGLVKEGDNYVVLSDILGDEDHLGDMDFKVAGSRDGISALQMDIKIEGITKEIMQVALNQAKGARLHILGVMEQAINAPRGDISEFA
modifications: left off: Mycobacterium xenopi GyrA intein, C-terminal, cleaved | His8, C-terminal, cleaved
For B2, the “Mw weight-averaged solute molar mass” value in data set [1] (setting [3]) is 163,600 Da. Also, in data set [1] (setting [4]), the “Mn number-averaged solute molar mass” value was 163,300 Da. The “Polydispersity (Mn/Mw)” value in data set [1] (setting [5]) was determined as 1.002. Moreover, the “Difference Mn from expected mass” value in data set [1] (setting [6]) was determined as 8.7%.

B3: RNase E 960 – 1061 R1012A: RNase E peptide with point mutation of Arg1012 to alanine (peptide)
chain: VVETAEVVVAEPEVVAQPAAPVVAEVAAEVETVAAVEPEVTVEHNHATAPMTAAPAPEYVPEAPRHSDWQRPTFAFEGKGAAGGHTATHHASAAPARPQPVE
modifications: left off: His6, N-terminal, cleaved | MBP, N-terminal, cleaved | intein, C-terminal, cleaved | choline-binding domain, C-terminal, cleaved
notes: RNase E peptide with point mutation of Arg1012 to alanine
In the case of B3, the “Kd (dissociation rate constant, point mutants and wildtype)” value in data set [2] stood at 0.052 s⁻¹. Moreover, in data set [2] (setting [10]), the “association rate compared to the wildtype, in words” value is “does not significantly affect the KD of the interaction and the association rate”; the “dissociation rate (off-rate) compared to the wildtype, in words” value is “faster off-rate; also recorded: faster dissociation rate”; the “effect on KD / binding compared to the wildtype, in words” value was “does not significantly affect the KD of the interaction”.

B4: RNase E 960 – 1061 R1056A: RNase E peptide with point mutation of Arg1056 to alanine (peptide)
chain: VVETAEVVVAEPEVVAQPAAPVVAEVAAEVETVAAVEPEVTVEHNHATAPMTRAPAPEYVPEAPRHSDWQRPTFAFEGKGAAGGHTATHHASAAPAAPQPVE
modifications: left off: His6, N-terminal, cleaved | MBP, N-terminal, cleaved | intein, C-terminal, cleaved | choline-binding domain, C-terminal, cleaved
notes: RNase E peptide with point mutation of Arg1056 to alanine
As for B4, the “Kd (dissociation rate constant, point mutants and wildtype)” value in data set [2] was 0.045 s⁻¹. In data set [2] (setting [10]), the “KD change compared to the wildtype” value is “roughly 13 fold”; the “association rate compared to the wildtype, in words” value is on record as “ten-fold slower”; the “dissociation rate (off-rate) compared to the wildtype, in words” value is given as “faster off-rate”.
